Series [1] has as its target T1, SmD1 (1-109);SmD2;SmF;SmE;SmG;SmD3 (1-88);SmB (1-105) (Saccharomyces cerevisiae;Saccharomyces …, UniProt Q02260;Q06217;P54999;Q12330;P40204;P43321;P40018 …, ||||||). The series can be described thus: EMSA.
In series [2] the target is T2, SmD1 (1-109);SmD2;SmF;SmE;SmG;Brr1 (Saccharomyces cerevisiae;Saccharomyces …, UniProt Q02260;Q06217;P54999;Q12330;P40204;Q99177 1-109;1-110;1-86;1-94;1-77;1-341, |||||). The series can be described thus: EMSA.
Series [3] deals with T3, SmD1 (1-109);SmD2;SmF;SmE;SmG (Saccharomyces cerevisiae;Saccharomyces …, UniProt Q02260;Q06217;P54999;Q12330;P40204 1-109;1-110;1-86;1-94;1-77, ||||). The series can be described thus: EMSA.
Series [4] deals with T1, SmD1 (1-109);SmD2;SmF;SmE;SmG;SmD3 …. The series can be described thus: EMSA. The source holds these as a separate data set.
Series [5] concerns the target T4, Brr1, full length, HT-tag removed (S. cerevisiae, UniProt Q99177 1-341).
T4 sequence (looked up): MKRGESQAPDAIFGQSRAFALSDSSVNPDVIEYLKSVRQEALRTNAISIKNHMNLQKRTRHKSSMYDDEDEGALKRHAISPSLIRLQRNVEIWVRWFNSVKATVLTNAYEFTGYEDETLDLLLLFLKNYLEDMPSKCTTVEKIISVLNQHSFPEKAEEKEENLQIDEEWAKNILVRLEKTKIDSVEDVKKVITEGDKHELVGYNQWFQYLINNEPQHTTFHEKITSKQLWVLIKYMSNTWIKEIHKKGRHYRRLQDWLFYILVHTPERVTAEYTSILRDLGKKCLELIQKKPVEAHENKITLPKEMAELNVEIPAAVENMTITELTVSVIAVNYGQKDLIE
The series can be described thus: SEC.

Series [6] addresses T5, HT-Brr1, full-length Brr1 with N-terminal HT-tag (S. cerevisiae, UniProt Q99177 1-341).
T5 sequence (looked up): T4 sequence (looked up)
The series can be described thus: pull-down.

The target of series [7] is T6, Brr1Δ(122-197) with N-terminal HT-tag (S. cerevisiae, UniProt Q99177 1-341, Δ(122-197)).
T6 sequence (looked up): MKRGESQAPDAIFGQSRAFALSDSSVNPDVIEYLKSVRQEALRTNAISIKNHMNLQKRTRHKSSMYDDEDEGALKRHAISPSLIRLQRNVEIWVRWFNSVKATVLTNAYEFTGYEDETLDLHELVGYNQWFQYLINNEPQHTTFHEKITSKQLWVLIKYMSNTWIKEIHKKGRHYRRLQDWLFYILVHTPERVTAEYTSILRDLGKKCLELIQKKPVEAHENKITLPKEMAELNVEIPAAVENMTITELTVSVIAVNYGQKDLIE
The series can be described thus: pull-down.

The target in series [8] is T1, SmD1 (1-109);SmD2;SmF;SmE;SmG;SmD3 …. The series can be described thus: EMSA. The source holds these as a separate data set.
Series [9] addresses T3, SmD1 (1-109);SmD2;SmF;SmE;SmG. The series can be described thus: EMSA. The source holds these as a separate data set.
In series [10] the target is T2, SmD1 (1-109);SmD2;SmF;SmE;SmG;Brr1. The series can be described thus: EMSA. The source holds these as a separate data set.
Series [11] concerns the target T1, SmD1 (1-109);SmD2;SmF;SmE;SmG;SmD3 …. The series can be described thus: EMSA. The source holds these as a separate data set.
The target of series [12] is SmD1 (1-109);SmD2;SmF;SmE;SmG;Brr1;SmD3 (1-88);SmB (1-105) (Saccharomyces cerevisiae;Saccharomyces …, UniProt Q02260;Q06217;P54999;Q12330;P40204;Q99177;P43321;P40018 …, |||||||). The series can be described thus: EMSA.
Series [13] addresses T7, D1/D2/F/E/G pentamer (5Sm) (S. cerevisiae, UniProt Q02260 1-109; Q06217 1-110; P54999 1-86; Q12330 1-94; P40204 1-77).
T7 sequence (looked up) 1: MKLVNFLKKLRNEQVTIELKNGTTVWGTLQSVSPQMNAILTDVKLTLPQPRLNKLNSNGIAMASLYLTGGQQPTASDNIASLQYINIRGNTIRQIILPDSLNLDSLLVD
T7 sequence (looked up) 2: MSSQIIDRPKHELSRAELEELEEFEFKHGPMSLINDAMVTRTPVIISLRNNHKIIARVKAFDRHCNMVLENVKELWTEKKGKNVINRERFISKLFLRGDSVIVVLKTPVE
T7 sequence (looked up) 3: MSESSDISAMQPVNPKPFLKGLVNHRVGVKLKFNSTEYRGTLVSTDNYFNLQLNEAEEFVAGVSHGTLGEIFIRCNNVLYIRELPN
T7 sequence (looked up) 4: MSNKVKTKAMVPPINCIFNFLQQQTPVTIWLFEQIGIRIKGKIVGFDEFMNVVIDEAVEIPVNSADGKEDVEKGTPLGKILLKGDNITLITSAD
T7 sequence (looked up) 5: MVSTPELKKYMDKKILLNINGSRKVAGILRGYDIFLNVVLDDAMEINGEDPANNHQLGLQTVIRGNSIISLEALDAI
The series can be described thus: pull-down.

This note sets out measurements from publication PMC11965559 (Nature Communications, 2024).

Positions count from the first letter of the chain named. Read-outs that look alike come from different tables or passages of the source.

B1: U4-snRNA (structured_RNA)
RNA: GGAUCCUUAUGCACGGGAAAUACGCAUAUCAGUGAGGAUUCGUCCGAGAUUGUGUUUUUGCUGGUUGAAAUUUAAUUAUAAACCAGACCGUCUCCUCAUGGUCAAUUCGGUGUUCGCUUUUGAAUACUUCAAGACUAUGUAAAUUUUUGGAAUACCUUU
B1: the binding result in series [1] and in [2] was “binds” in each case.

B2: Umini-3'ss (ssRNA)
RNA: GGGAAGUGUUACAGCUCUUUUAGAAUUUUUGGAGUAGGCUUUCUGGCUUUUCAGGCCUUUCGGGGA
Regarding B2, the binding result in [3], in series [4] and in series [2] was “binds” in each case.

B3: F/E/G (SmF/SmE/SmG subcomplex, HT-tags removed) (complex, S. cerevisiae)
chain 1: T7 sequence (looked up) 3
chain 2: T7 sequence (looked up) 4
chain 3: T7 sequence (looked up) 5
Consider B3, for which the binding result in series [5], in series [6] and in series [7] was “binds” in each case.

B4: Umini-snRNA (structured_RNA)
RNA: GGGAAGUGUUACAGCUCUUUUAGAAUUUUUGGAGUAGGCUUUCUGGCUUUUCACCGGAAAGCCCCU
Take B4: the binding result in [8], in [9] and in series [10] was “binds” in each case.

B5: Umini-ΔSm-snRNA (structured_RNA)
RNA: B4 RNA with U26C, U27C, U28C, U29C, U30C
For B5, the binding result in series [11], in [12], in series [2] and in series [9] was “no binding” in each case.

B6: HT-Lot5ΔC, Lot5 (residues 1–227) with N-terminal HT-tag (domain or fragment, S. cerevisiae, UniProt P34234 1-227, looked up)
chain: MMKKKPKCQIARTKPSVENVIPYNQFKKTQPRFNGNFSALNNEEYIILFGGGRDLILGSLTPCSSSHLSNQANPQDTSEYGTDLFILNSCIIIWFNGLGYGLEIPYSSVLYHASRRLPDGREGLQLEILLTLERDEVLDMLYQSLAPQACEFDGEEAHAFTVRSVELTIRPKYSIYDRHYNNEIETLFTFENFGVNRGDDLVNNCNEALAVCMDLHGEDVQDQDQEQ
For the molecule B6, in series [13], the binding result is recorded as “binds”.
